Among the data in paper PMC9584954 are stoichiometry N and percent of the total McrG in the purified complex values, retold here.

The target in assay [1] is Flag-Strep2-tagged Methanococcus aeolicus McrG (tag at the N-terminus of McrG, NG) (Methanococcus aeolicus). Kind of assay: native MS; intact protein mass spectrometry (12 T FT-ICR, nano-electrospray) of purified NG-tagged MCRaeo, 10 μM in 200 mM ammonium acetate pH 7.6.
The target of assay [2] is Methanococcus aeolicus McrA (untagged) (Methanococcus aeolicus). The assay is described as above.
Assay [3] deals with Flag-Strep2-tagged Methanococcus aeolicus McrA (tag at the C-terminus of McrA, CA) (Methanococcus aeolicus). Kind of assay: affinity purification with mass spectrometry; Flag-Strep2-tagged subunit expressed with its mcr operon (full or truncated) in M. maripaludis at 37 °C; lysate on Strep-Tactin Superflow Plus in 100 mM Tris-HCl pH 7.6, 150 mM NaCl, eluted with 2.5 mM desthiobiotin, then Q-Sepharose anion exchange; SDS-PAGE, bands identified by MALDI-TOF MS, relative abundance by LC-MS/MS.

Assay [4] deals with Flag-Strep2-tagged Methanococcus aeolicus McrB (tag at the N-terminus of McrB, NB) (Methanococcus aeolicus). Described as above.
Assay [5] deals with Flag-Strep2-tagged Methanococcus aeolicus McrG (tag at the N-terminus of McrG, NG) (Methanococcus aeolicus). The assay is described as above.
Assay [6] has as its target Methanococcus aeolicus McrB (untagged) (Methanococcus aeolicus). Kind of assay: native MS; intact protein mass spectrometry (12 T FT-ICR, nano-electrospray) of purified NG-tagged MCRaeo, 10 μM in 200 mM ammonium acetate pH 7.6.

As a reminder, the stoichiometry N is the number of molecules, sites or subunits per partner or assembly.

The substance “Flag-Strep2-tagged Methanococcus aeolicus McrG (tag at the N-terminus of McrG, NG) (natural protein)” had a stoichiometry N in assay [1] of 2.

As to “Methanococcus aeolicus McrA (untagged) (natural protein)”, the stoichiometry N in assay [2] is 2.

With “untagged host Methanococcus maripaludis McrG (natural protein)”, the percent of the total McrG in the purified complex in assay [3], in assay [4] and in assay [5] was 30% in each case.

For “Methanococcus aeolicus McrB (untagged) (natural protein)”, the stoichiometry N in assay [6] was 2.
